We go through eight molecules from patent US20250179142A1 (SUNSHINE LAKE PHARMA, published 2025).

Data set [1] has as its target glucagon-like peptide-1 receptor (UniProt P43220 24-463, limits assumed). Description: cell-based or functional assay.
Data set [2] deals with the molecule itself. Description: SEC (size exclusion HPLC), self-association of the Fc into a homodimer. As for the experimental part: (§1) In this example, the effects of introducing different mutations on the structural properties of Fc were tested, and the test results of some mutants are shown in Table 5. Test steps include:
(§2) Molecular cloning method was used to insert Fc nucleic acid sequence into mammalian cell expression vector, and ExpiCHO Fectamine™ CHO Transfection Kit (ThermoFisher Scientific) was used for transient transfection and expression in CHO-S cells; after purification by Protein A column, the target protein was obtained, and the target protein was analyzed by size exclusion high performance liquid chromatography (SEC). The main principle of SEC analysis is based on the molecular weight and three-dimensional structure of the analyte (such as protein). Generally, analytes with larger molecular weights will pass through the chromatographic column more quickly, so they have a shorter column retention time. On the contrary, analytes with smaller molecular weights have longer retention times. So SEC can be used to analyze the aggregation of protein molecules.

Data set [3] concerns the molecule itself. Description: SEC (size exclusion HPLC), self-association of the Fc. How it is done:
as §1, §2

Numbering of substitutions follows the chain as printed. Numbers in names are those of the source.

B1: GLP-1-Fc-GDF15 fusion protein D8 (Fc fusion)
chain: HGEGTFTSDVSSYLEEQAAKEFIAWLVKGGGGGGGSGGGGSGGGGSAPEAAGGPSVFLFPPKPKDTLMISRTPEVTCVVVDVSQEDPEVQFNWYVDGVEVHNAKTKPREEQFNSTYRVVSVLTVLHQDWLNGKEYKCKVSNKGLPSSIEKTISKAKGQPREPQVYTLPPSQEEMTKNQVSLTCLVKGFYPSDIAVEWESNGQPENNYKTTPPVLDSDGSFFLYSRLTVDKSRWQEGNVFSCSVMHEALHNHYTQESLSLSLGGGGGSGGGGSAPAPAPAPAPAPAPAPAPAPGGGGSGGGGSDHCPLGPGRCCRLHTVRASLEDLGWADWVLSPREVQVTMCIGACPSQFRAANMHAQIKTSLHRLKPDTVPAPCCVPASYNPMVLIQKTDTGVSLQTYDDLLAKDCHCI
In the case of B1, the “GLP-1 activity (EC50, nM): intracellular cAMP in HEK293 cells with high GLP-1R expression” value (from here on “GLP-1 activity (EC50, nM)”) in data set [1] was determined as 0.084 nM.

B2: GLP-1-Fc-GDF15 fusion protein D9 (Fc fusion)
chain: B1 chain with E255Q
As for B2, in data set [1], the “GLP-1 activity (EC50, nM)” value is 0.1 nM.

B3: GLP-1-Fc-GDF15 fusion protein D11 (Fc fusion)
chain: HGEGTFTSDVSSYLEEQAAKEFIAWLVKGGGGGGGSGGGGSGGGGSEAAGGPSVFLFPPKPKDTLMISRTPEVTCVVVDVSQEDPEVQFNWYVDGVEVHNAKTKPREEQFNSTYRVVSVLTVLHQDWLNGKEYKCKVSNKGLPSSIEKTISKAKGQPREPQVYTLPPSQEEMTKNQVSLTCLVKGFYPSDIAVEWESNGQPENNYKTTPPVLDSDGSFFLYSRLTVDKSRWQEGNVFSCSVMHEALHNHYTQESLSLSLGGGGGSGGGGSAPAPAPAPAPAPAPAPAPAPGGGGSGGGGSDHCPLGPGRCCRLHTVRASLEDLGWADWVLSPREVQVTMCIGACPSQFRAANMHAQIKTSLHRLKPDTVPAPCCVPASYNPMVLIQKTDTGVSLQTYDDLLAKDCHCI
Consider B3, for which, in data set [1], the “GLP-1 activity (EC50, nM)” value was 0.118 nM.

B4: GLP-1-Fc-GDF15 fusion protein D13 (Fc fusion)
chain: B3 chain with A24Q
As to B4, in data set [1], the “GLP-1 activity (EC50, nM)” value was determined as 0.124 nM.

B5: GLP-1-Fc-GDF15 fusion protein D14 (Fc fusion)
chain: B3 chain with I23V, A24Q
Regarding B5, the “GLP-1 activity (EC50, nM)” value in data set [1] was 0.183 nM.

B6: IgG4 Fc (AA, K439E) (other)
chain: EAAGGPSVFLFPPKPKDTLMISRTPEVTCVVVDVSQEDPEVQFNWYVDGVEVHNAKTKPREEQFNSTYRVVSVLTVLHQDWLNGKEYKCKVSNKGLPSSIEKTISKAKGQPREPQVYTLPPSQEEMTKNQVSLTCLVKGFYPSDIAVEWESNGQPENNYKTTPPVLDSDGSFFLYSRLTVDKSRWQEGNVFSCSVMHEALHNHYTQESLSLSLG
Turning to B6, in data set [2], the binding result is given as “binds”.

B7: IgG4 Fc (AA, F405Q/Y407E) (other)
chain: B6 chain with F173Q, Y175E, E207K
With B7, in data set [3], the binding result is “no binding”.

B8: IgG4 Fc (AA, K439D) (other)
chain: B6 chain with E207D
Take B8: in data set [2], the binding result is listed as “binds”.
